From patent US20250042991A1 (University of Texas, published 2025) come the findings set out here.

B1: hLept-2 (antibody, V domains shown)
VH: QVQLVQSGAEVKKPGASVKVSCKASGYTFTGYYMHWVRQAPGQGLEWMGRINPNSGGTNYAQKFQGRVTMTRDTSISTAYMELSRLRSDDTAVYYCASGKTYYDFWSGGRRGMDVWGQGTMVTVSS
VL: DIQLTQSPSSLSASVGDRVTITCRAGQSVSRYLNWFQQKPGKAPKLLIYTSSNLQSGVPSRFSASGSGTDFTLTISSLQPEDFATYYCQQTYSTPWTFGQGTKLEIK
notes: Expressed as full human IgG in HEK293 cells
B2: hLept-6 (antibody, V domains shown)
VH: QVQLMQSGAEVKKPGASVKVSCKASGYTFTSYYMHWVRQAPGQGLEWMGIINPSGGSTSYAQKFQGRVTMTRDTSTSTVYMELSSLRSEDTAVYYCARGFGYGGKALDYWGQGTTVTVSS
VL: DIQMTQSPPTLSASVGDRVTITCRASQNINSRLAWYQQKPGRAPKLLIYKASTLESGVPSRFSGSGSGTEFTLTISSLQPDDFATYYCQQFDKYSITFGGGTKMEIK
notes: as for B1
B3: hLept-3 (antibody, V domains shown)
VH: QVQLVQSGAEVKKPGSSVKVSCKASGGTFSSYAISWVRQAPGQGLEWMGGIIPIFGTANYAQKFQGRVTITADESTSTAYMELSSLRSEDTAVYYCARSQVPSSYYYGMDVWGQGTMVTVSS
VL: QSVLTQPPSVSGAPGQRVTISCTGGNSNIGAGYHVHWYQQLPGAAPKLLIYGDTNRPSGVPDRFSGSQSGTSASLAITGLQADDEADYYCQSYDRSRGGWFFGGGTQLTVL
notes: Expressed as full human IgG in HEK293 cells; also called hLetp-3
B4: hLept-5 (antibody, V domains shown)
VH: QVKLVEWSLSVVQPGRSLRLSCAASGFTFSSYAMHWVRQAPGKGLEWVAVISYDGSNKYYADSVKGRFTISRDNSKNTLYLQMNSLRAEDTAVYYCARGREYYYYMDVWGKGTTVSVSS
VL: QSVLTQPPSVSVAPGKTARITCGGYNIARKSVHWYQQKPGQAPVLVMYNDNDRPSGIPERFSGSNSGNTATLTISRVEAGDEADYYCQVWDNSDYVFGTGTKVTVL
notes: as for B1
B5: hLept-1 (antibody, V domains shown)
VH: QVQLQQLGPGLVKPSETLSLTCNVSGGSVSRGSHYWTWIRQPPGKGLEWIGYIHTDGSTNFNPSLKSRVTMSLDRSRNQFSLTLSSVTATDTAVYYCAREPGGALNFWGQGTLVTVSS
VL: not shown
notes: From a human scFv phage library, expressed as full human IgG in HEK293 cells

For one test, the target named is T1, human leptin (human, UniProt P41159 22-167).
T1 construct: Bought recombinant protein coated on ELISA plates; also called Leptin protein; LEPTIN antigen
T1 sequence (P41159 22-167 limits assumed): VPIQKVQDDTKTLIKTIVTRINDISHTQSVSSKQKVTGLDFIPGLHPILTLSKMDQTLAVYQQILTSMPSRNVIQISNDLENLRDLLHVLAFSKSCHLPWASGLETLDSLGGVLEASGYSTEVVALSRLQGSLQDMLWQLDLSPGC
Kind of test: ELISA, human leptin coated on plate, 1:20 diluted culture supernatant. As to the method:
Binding of LEPTIN by monoclonal antibodies was first screened by ELISA using supernatants collected from the B cell cultures. Human or mouse LEPTIN protein (Sino Biologicals) was coated on a 96-well high binding plate over night at 4° C. in PBS. B cell culture supernatants (5 μl medium and 95 μl of PBS) were added at for binding to LEPTIN antigen coated on the plate. Bound antibody was detected using a secondary antibody against rabbit IgG conjugated with HRP and TMB substrate.
As to B1, the “absorbance at 450 nM” value was 2.57 absorbance at 450 nM.

In the case of B2, the “absorbance at 450 nM” value was 0.663 absorbance at 450 nM.

Turning to B3, the “absorbance at 450 nM” value came to 0.19 absorbance at 450 nM.

For B4, the “absorbance at 450 nM” value is 0.739 absorbance at 450 nM.

On to B5, for which the “absorbance at 450 nM” value was found to be 0.071 absorbance at 450 nM.

In the next test the target is T1, human leptin. Kind of test: ELISA titration on coated leptin, 4 parameter fit. As to the method:
ELISA titration was used to determine the binding affinity of a panel of monoclonal antibodies to LEPTIN antigen. Binding constants (KD and/or EC 50) of a panel of monoclonal antibodies were estimated using the 4 parameter curve fitting with Prism GraphPad program. For Biacore analysis, all experiments were performed at 25° C. at a flow rate of 45 μl/min. An anti-human IgG Fc antibody (from ThermoFisher, at 50 μg/ml each in acetate buffer, pH 5.0) was immobilized onto a carboxymethyl dextran sensorchip (CM5) using amine coupling procedures based on instruction from the manufacturer. Purified rabbit/human chimeric antibody to be tested was diluted at a concentration of 5 μg/ml in 0.5% P20, HBS-EP buffer and injected on FC2 to reach 500 to 1000 RU. FC1 was used as the reference cell. Specific signals correspond to the difference of signals obtained on FC2 versus FC1. The analyte (recombinant human LEPTIN, apparent molecular weight 16 kDa on SDS-PAGE gel) was injected during 90 sec at series of concentration dilutions (100, 50, 25, 12.5, 6.25, and 3.13, 1.56 nM) in 0.5% P20, HBS-EP buffer. These concentrations were prepared from stock solution in 0.5% P20, HBS-EP. The dissociation phase of the analyte was monitored over a 30 minutes period. Running buffer was also injected under the same conditions as a double reference. After each running cycle, both flow cells were regenerated by injecting 20 to 45 μl of Glycine-HCl buffer pH 1.5. Binding KD on LEPTIN was calculated by koff/kₒₙ kinetic rate for each LEPTIN monoclonal antibodies (Table 3).
A general note: ELISA stands for enzyme-linked immunosorbent assay.
What is called EC50 is the concentration that produces a half-maximal response. The molecule B1 had an EC50 of 1 to 500 nM.

B2 yielded a half-maximal effective concentration (EC50) of 1 to 500 nM.

Consider B3, for which the 50% effective concentration (EC50) was in the range of 1 to 500 nM.

In the case of B4, the EC50 lay in the range of 1 to 500 nM.

Consider B5, for which the EC50 is 1 to 500 nM.
